According to patent US20240182596A1 (TUBULIS, published 2024):

What was measured:
FcγRIIIa (CD16) (F158) = molecular target: T1, FcγRIIIa (CD16) (F158) (Homo sapiens, UniProt P08637); assay: Lumit FcγRIIIa (F158) Binding Immunoassay (Promega), right panel FcγRIIIa (CD16) (F158), competition with Tracer-LgBiT for FcγR-SmBiT, falling luminescence means binding, n=1
T1 construct: m21 joins both polymorphic variants; also called F158 variant of m21
Protocol: Luminescence is measured on a microplate reader Infinite M200 Pro (Tecan). Graphs show n=1.
Luminescence was measured on a microplate reader Infinite M200 Pro (Tecan). Graphs show n=1.

[1] = molecular target: T2, human Napi2b-mCherry on HEK293 cells (human, UniProt O95436 1-690); assay: flow cytometry on HEK293 cells stably expressing human full-length NaPi2b-mCherry, Alexa-dye anti-human IgG H+L secondary antibody, MFI ratio, one-site specific binding fit; the Kd table prints no unit, the concentration axis is in nM
T2 construct: also called Napi2b (SLC34A2); HEK293 cells overexpressing Napi2b
T2 sequence: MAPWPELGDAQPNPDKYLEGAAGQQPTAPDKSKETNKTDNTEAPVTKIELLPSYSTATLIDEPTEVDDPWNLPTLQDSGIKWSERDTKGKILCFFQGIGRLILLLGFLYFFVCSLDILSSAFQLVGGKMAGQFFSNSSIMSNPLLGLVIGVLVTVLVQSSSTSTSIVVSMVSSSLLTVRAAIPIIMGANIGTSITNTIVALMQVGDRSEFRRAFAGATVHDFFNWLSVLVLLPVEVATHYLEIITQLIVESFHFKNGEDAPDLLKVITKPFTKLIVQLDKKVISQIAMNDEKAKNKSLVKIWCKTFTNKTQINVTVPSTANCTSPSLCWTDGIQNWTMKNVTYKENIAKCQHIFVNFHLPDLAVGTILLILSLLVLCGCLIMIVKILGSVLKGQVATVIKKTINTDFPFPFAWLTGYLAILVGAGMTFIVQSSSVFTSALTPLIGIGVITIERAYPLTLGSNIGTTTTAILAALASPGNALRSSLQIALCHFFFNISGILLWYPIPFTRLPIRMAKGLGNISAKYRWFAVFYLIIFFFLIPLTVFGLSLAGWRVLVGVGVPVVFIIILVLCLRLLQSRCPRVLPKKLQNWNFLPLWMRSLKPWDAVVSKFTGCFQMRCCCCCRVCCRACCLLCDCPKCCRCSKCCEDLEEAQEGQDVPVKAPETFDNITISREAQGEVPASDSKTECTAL
Description: (§1) HEK293 cells stably overexpressing human and rat Napi2b were generated by stable integration of a human or rat full-length Napi2b-mCherry-(GGGS)3x-mCherry expression construct under control of a human EF1 promoter and a Puromycin-selection cassette under a CMV promoter into the parental HEK293 cell line. In brief, cells were transfected with the linearized plasmids using Lipfectamine 2000 (Thermo Fisher) and selected with Puromycin antibiotic. Cells were then single cell cloned in 96-well plates via serial dilution under continuous antibiotic selection. Clones were screened for target expression via flow cytometry and mCherry fluorescence via flow cytometry and fluorescence microscopy. Target- and mCherry-positive clones were expanded and used for further experiments. […] Binding of antibodies was investigated on mCherry-positive cells. Mean fluorescence intensity (MFI) ratios were normalized to the secondary antibody control. The assay was performed in duplicates and data points were analyzed by a non-linear regression using a one-site specific binding model to derive KD values using Prism 9 software.

FcγRIIa (CD32) (H131) = molecular target: T3, FcγRIIa (CD32) (H131) (Fused to the SmBiT luciferase fragment (Promega Lumit reagent), not carried in the letters); assay: Lumit FcγRIIa (H131) Binding Immunoassay (Promega), left panel FcγRIIa (CD32) (H131), competition with Tracer-LgBiT for FcγR-SmBiT, n=1
T3 construct: m20 joins both polymorphic variants; also called H131 variant of m20; not shown: SmBiT tag (and any linker or purification tag) of Promega's FcγR-SmBiT fusion
T3 chain: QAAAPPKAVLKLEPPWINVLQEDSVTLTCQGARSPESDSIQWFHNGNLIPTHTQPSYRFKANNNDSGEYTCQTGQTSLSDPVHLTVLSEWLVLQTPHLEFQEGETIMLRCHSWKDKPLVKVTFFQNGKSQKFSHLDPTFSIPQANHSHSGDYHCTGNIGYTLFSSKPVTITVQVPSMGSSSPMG

[2] = molecular target: T2, human Napi2b-mCherry on HEK293 cells; assay: flow cytometry on HEK293 cells expressing human Napi2b-mCherry (panel Napi2b-HEK293), Alexa-dye anti-human IgG H+L secondary antibody, MFI ratio to the non-specific binding control
Protocol: To determine concentration-dependent binding, HEK293 cells transiently or stably expressing human Napi2a-, Napi2b- and Napi2c-mCherry were incubated with antibodies or ADCs in concentrations ranging from 0.002 to 200 nM, stained with an Alexa-dye-labeled anti-human IgG H+L secondary antibody (Thermo Fisher Scientific), and analyzed by flow cytometry. Mean fluorescence intensity (MFI) ratios were normalized to the non-specific binding control. The assay was performed in duplicates and data points were analyzed by a non-linear regression using a one-site specific binding model using Prism 9 software.

[3] = molecular target: T4, purified recombinant human Napi2b antigen consisting of Napi2b-extracellular-loop2 expressed as … (human, UniProt O95436 234-362, limits assumed); assay: ELISA on the isolated immobilized protein; table column Binding KD (nmol/L), ELISA
T4 construct: Expressed in Expi-HEK293 cells; also called immobilized human NaPi2B; not shown: Fc part; 6-His tag
T4 sequence: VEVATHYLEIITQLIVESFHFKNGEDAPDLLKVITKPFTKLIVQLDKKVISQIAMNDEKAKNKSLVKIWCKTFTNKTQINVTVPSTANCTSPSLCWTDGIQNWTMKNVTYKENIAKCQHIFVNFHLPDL

[4] = molecular target: T5, HEK293 rat-NaPi2B-mCherry (Rattus norvegicus, UniProt Q9JJ09); assay: flow cytometry on HEK293 cells stably expressing rat full-length NaPi2b-mCherry, Alexa-dye anti-human IgG H+L secondary antibody, MFI ratio, one-site specific binding fit; the Kd table prints no unit, the concentration axis is in nM
T5 construct: full-length mCherry fusion stably expressed on HEK293 cells; also called rat full-length NaPi2b-mCherry on HEK293 cells
T5 sequence (target on cells, looked up): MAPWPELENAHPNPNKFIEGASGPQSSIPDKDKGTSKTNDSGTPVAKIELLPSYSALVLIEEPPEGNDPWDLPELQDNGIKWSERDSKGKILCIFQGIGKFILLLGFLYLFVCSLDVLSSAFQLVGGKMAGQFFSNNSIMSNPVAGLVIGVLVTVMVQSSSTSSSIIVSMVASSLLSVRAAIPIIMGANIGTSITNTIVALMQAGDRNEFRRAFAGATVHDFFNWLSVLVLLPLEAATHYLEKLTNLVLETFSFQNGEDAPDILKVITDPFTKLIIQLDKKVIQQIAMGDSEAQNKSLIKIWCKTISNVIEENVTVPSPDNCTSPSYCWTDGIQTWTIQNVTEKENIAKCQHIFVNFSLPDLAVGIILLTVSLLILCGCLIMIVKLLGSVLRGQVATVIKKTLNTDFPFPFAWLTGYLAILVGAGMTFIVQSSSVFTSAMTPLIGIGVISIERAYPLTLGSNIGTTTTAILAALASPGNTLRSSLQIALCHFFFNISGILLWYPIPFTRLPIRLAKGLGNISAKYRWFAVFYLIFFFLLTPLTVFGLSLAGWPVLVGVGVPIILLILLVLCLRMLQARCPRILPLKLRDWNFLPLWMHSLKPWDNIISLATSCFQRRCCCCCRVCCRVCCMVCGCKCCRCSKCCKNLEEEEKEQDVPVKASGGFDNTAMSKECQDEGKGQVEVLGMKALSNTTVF
Description: as §1

[5] = molecular target: T6, human NaPi2b on NaPi2b-positive cell lines OVCAR-3 and HCC-78 (human, UniProt O95436 1-690); assay: flow cytometry on OVCAR-3 cells; table column Binding KD (nmol/L), FACS (OVCAR-3)
T6 construct: Endogenous protein
T6 sequence: T2 sequence

T1 sequence (P08637 17-208 limits assumed): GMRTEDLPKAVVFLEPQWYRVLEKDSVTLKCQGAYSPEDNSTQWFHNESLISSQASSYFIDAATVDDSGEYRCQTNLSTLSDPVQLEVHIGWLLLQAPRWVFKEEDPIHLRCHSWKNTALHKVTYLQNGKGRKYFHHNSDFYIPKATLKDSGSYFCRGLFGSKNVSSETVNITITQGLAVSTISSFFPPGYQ

binding result (FcγRIIIa (CD16) (F158)): binds | Kd [1]: 1.52 nM | binding result (FcγRIIa (CD32) (H131)): no binding | EC50 (read off the curve) [2]: ~0.7 nM | Kd [3]: 0.071 nM | Kd [4]: 0.539 nM | Kd [5]: 2.7 nM
B1: AV25 mAb, LALA-silenced (AV25 HC-LALA) (antibody, human IgG1, kappa, L234A L235A)
heavy: not shown
light: DIQMTQSPSSLSASVGDRVTITCSASQDIGNFLNWYQQKPGKTVKVLIYYASSLYSGVPSRFSGSGSGTDYTLTISSLQPEDFATYYCQQYSKLPLTFGQGTKLELKRTVAAPSVFIFPPSDEQLKSGTASVVCLLNNFYPREAKVQWKVDNALQSGNSQESVTEQDSKDSTYSLSSTLTLSKADYEKHKVYACEVTHQGLSSPVTKSFNRGEC
notes: also called unmodified AV25 mAb
